Series [1] deals with TNFα (Homo sapiens, UniProt P01375). The experiment in a line: Neutralization of TNFα cytotoxicity on L929 cells (crystal violet staining). Particulars: for IC50 of cytotoxicity inhibition, TNFα treated: actinomycin D 3 μg/ml, TNFα 0.5~2 ng/ml (100% cytotoxicity), 16~18 hrs. It is filed as cell-based. The protocol:
(§1) An L929 cell [ATCC, Mus musculus (mouse), NCTC clone 929 (derivative of strain L; L-929; L cell) was used for testing the effect of TNFR/Fc fusion protein on the inhibition of cytotoxicity induced by TNFα and TNFβ. This analysis was based on the TNFR activity of inhibiting cytotoxicity induced by TNF (Scallon et al., Cytokine 7:759, 1995).
(§2) L929 cells were inoculated to be 3×10^4 cells/well in 96-well plates, and incubated at 37° C. for 24 hrs in a CO2 incubator. Subsequently, actinomycin D (Sigma, USA) was added to 3 μg/ml, and cells were incubated for 16˜18 hrs with TNFα and TNFβ in the concentration of expressing 100% cytotoxicity (0.5˜2 ng/ml), and with serially 10 times diluted TNFR sample. Then, the cells in the 96-well plate were stained by the staining reagent, crystal violet (Wake Pure Chemical Industries, Japan) and the activity of the cells was estimated by the degree of absorbance at 595 nm wavelength using a spectrophotometer (Bio-Rad, Model-550, Japan).

In series [2] the target is T1, TNFβ (Homo sapiens, UniProt P01374).
T1 sequence (P01374 35-205): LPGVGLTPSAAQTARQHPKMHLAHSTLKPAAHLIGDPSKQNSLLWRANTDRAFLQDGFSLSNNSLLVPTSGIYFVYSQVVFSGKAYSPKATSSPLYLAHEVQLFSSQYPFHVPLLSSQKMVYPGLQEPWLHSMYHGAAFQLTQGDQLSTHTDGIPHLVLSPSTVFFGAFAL
The series can be described thus: Neutralization of TNFβ cytotoxicity on L929 cells (crystal violet staining). It is filed as cell-based. Particulars: for IC50 of cytotoxicity inhibition, TNFβ treated: actinomycin D 3 μg/ml, TNFβ 0.5~2 ng/ml (100% cytotoxicity), 16~18 hrs. On the procedure: as §1, §2

Sequence of TNFα (P01375 77-233 limits assumed, species assumed): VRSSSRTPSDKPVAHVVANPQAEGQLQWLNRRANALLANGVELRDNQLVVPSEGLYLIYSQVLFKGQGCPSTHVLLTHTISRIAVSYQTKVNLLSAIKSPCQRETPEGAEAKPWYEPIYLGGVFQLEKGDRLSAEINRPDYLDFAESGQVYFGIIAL

In the case of “[TNFR1-TNFR1/Fc]2: concatameric fusion dimeric protein: two TNFR1 soluble extracellular domains in tandem fused to IgG1 Fc; monomer SEQ ID NO: 6”, the “IC50 of cytotoxicity inhibition, TNFα treated” value in series [1] was 9 µg/mL. In addition, the “inhibitory effect on the cytotoxicity induced by TNFα, compared with simple dimeric fusion proteins” value in series [1] (versus TNFR1/Ig and TNFR2/Ig) is “higher inhibitory effect”. The “IC50 of cytotoxicity inhibition, TNFβ treated” value in series [2] came to 20 µg/mL. Further, the “inhibitory effect on the cytotoxicity induced by TNFβ, compared with simple dimeric fusion proteins” value in series [2] (versus TNFR1/Ig and TNFR2/Ig) is recorded as “higher inhibitory effect”.
“[TNFR1/Fc]2: conventional simple fusion dimeric protein: soluble extracellular domain of human TNFR1 fused to IgG1 Fc; monomer SEQ ID NO: 2 [reference compound]”: in series [1], the “IC50 of cytotoxicity inhibition, TNFα treated” value was 63 µg/mL. In series [2], the “IC50 of cytotoxicity inhibition, TNFβ treated” value worked out at 129 µg/mL.

Values taken from patent publication US8372961B2, “Polynucleotides encoding concatameric immunoadhesion molecules” (Medexgen Co., Ltd., priority 2001, dated 2013).
